Reference: US8785135B2, “Mutant G-protein coupled receptors and methods for selecting them” (Heptares Therapeutics Limited, priority 2007, dated 2014)

Assay: Thermostability of A2aR and mutants (ligand binding after or during heating)
Assay type: physicochemical
Text: FIG. 12 Flow chart showing the two different assay formats of ligand (+) and ligand (−) used to determine receptor thermostability.
• 1. 315 site-directed mutants made between residues 2-316 of A2aR. • 2. All of these mutants have been assayed for thermostability using an assay measuring agonist and antagonist binding after the heating step (Ligand(−) format as described in FIG. 12). • a. […] Mutations have been combined to generate mutants in a putative antagonist conformation. Wildtype A2aR has a Tm of 31° C. with ZM241385 bound. • a. Rant17 A54L+K122A+L235A Tm 48° C. (ZM241385 bound) • b. Rant19 A54L, T88A, V239A+A204L Tm 47° C. (ZM241385 bound) • c. Rant21 A54L, T88A, V239A+K122A Tm 49° C. (ZM241385 bound) • 4. Mutations from the agonist screen have been combined, but have led to only a very low level of improvement in Tm of +2° C.

[1] = Ligand(−) format, binding after the heating step

Molecule | thermostability assayed with 3H-ZM241385 (antagonist) [1] | Tm (ZM241385 bound) | thermostability measured with 3H-NECA (agonist) [1]
K122A: A2aR point mutant (protein, UniProt P29274 1-412, looked up, variant K122A) Adenosine receptor A2a: MPIMGSSVYITVELAIAVLAILGNVLVCWAVWLNSNLQNVTNYFVVSLAAADIAVGVLAIPFAITISTGFCAACHGCLFIACFVLVLTQSSIFSLLAIAIDRYIAIRIPLRYNGLVTGTRAAGIIAICWVLSFAIGLTPMLGWNNCGQPKEGKNHSQGCGEGQVACLFEDVVPMNYMVYFNFFACVLVPLLLMLGVYLRIFLAARRQLKQMESQPLPGERARSTLQKEVHAAKSLAIIVGLFALCWLPLHIINCFTFFCPDCSHAPLWLMYLAIVLSHTNSVVNPFIYAYRIREFRQTFRKIIRSHVLRQQEPFKAAGTSARVLAAHGSDGEQVSLRLNGHPPGVWANGSAPHPERRPNGYALGLVSGGSAQESQGNTGLPDVELLSHELKGVCPEPPGLDDPLAQDGAGVS | improved thermostability |  | 
Rant19: A2aR mutant A54L, T88A, V239A+A204L (protein, UniProt P29274 1-412, looked up, variant A54L T88A V239A A204L) Adenosine receptor A2a: MPIMGSSVYITVELAIAVLAILGNVLVCWAVWLNSNLQNVTNYFVVSLAAADILVGVLAIPFAITISTGFCAACHGCLFIACFVLVLAQSSIFSLLAIAIDRYIAIRIPLRYNGLVTGTRAKGIIAICWVLSFAIGLTPMLGWNNCGQPKEGKNHSQGCGEGQVACLFEDVVPMNYMVYFNFFACVLVPLLLMLGVYLRIFLALRRQLKQMESQPLPGERARSTLQKEVHAAKSLAIIAGLFALCWLPLHIINCFTFFCPDCSHAPLWLMYLAIVLSHTNSVVNPFIYAYRIREFRQTFRKIIRSHVLRQQEPFKAAGTSARVLAAHGSDGEQVSLRLNGHPPGVWANGSAPHPERRPNGYALGLVSGGSAQESQGNTGLPDVELLSHELKGVCPEPPGLDDPLAQDGAGVS |  | 47 °C | 
G123A: A2aR point mutant (protein, UniProt P29274 1-412, looked up, variant G123A) Adenosine receptor A2a: MPIMGSSVYITVELAIAVLAILGNVLVCWAVWLNSNLQNVTNYFVVSLAAADIAVGVLAIPFAITISTGFCAACHGCLFIACFVLVLTQSSIFSLLAIAIDRYIAIRIPLRYNGLVTGTRAKAIIAICWVLSFAIGLTPMLGWNNCGQPKEGKNHSQGCGEGQVACLFEDVVPMNYMVYFNFFACVLVPLLLMLGVYLRIFLAARRQLKQMESQPLPGERARSTLQKEVHAAKSLAIIVGLFALCWLPLHIINCFTFFCPDCSHAPLWLMYLAIVLSHTNSVVNPFIYAYRIREFRQTFRKIIRSHVLRQQEPFKAAGTSARVLAAHGSDGEQVSLRLNGHPPGVWANGSAPHPERRPNGYALGLVSGGSAQESQGNTGLPDVELLSHELKGVCPEPPGLDDPLAQDGAGVS | improved thermostability |  | 
E151A: A2aR point mutant (protein, UniProt P29274 1-412, looked up, variant E151A) Adenosine receptor A2a: MPIMGSSVYITVELAIAVLAILGNVLVCWAVWLNSNLQNVTNYFVVSLAAADIAVGVLAIPFAITISTGFCAACHGCLFIACFVLVLTQSSIFSLLAIAIDRYIAIRIPLRYNGLVTGTRAKGIIAICWVLSFAIGLTPMLGWNNCGQPKAGKNHSQGCGEGQVACLFEDVVPMNYMVYFNFFACVLVPLLLMLGVYLRIFLAARRQLKQMESQPLPGERARSTLQKEVHAAKSLAIIVGLFALCWLPLHIINCFTFFCPDCSHAPLWLMYLAIVLSHTNSVVNPFIYAYRIREFRQTFRKIIRSHVLRQQEPFKAAGTSARVLAAHGSDGEQVSLRLNGHPPGVWANGSAPHPERRPNGYALGLVSGGSAQESQGNTGLPDVELLSHELKGVCPEPPGLDDPLAQDGAGVS | improved thermostability |  | 
A204L: A2aR point mutant (protein, UniProt P29274 1-412, looked up, variant A204L) Adenosine receptor A2a: MPIMGSSVYITVELAIAVLAILGNVLVCWAVWLNSNLQNVTNYFVVSLAAADIAVGVLAIPFAITISTGFCAACHGCLFIACFVLVLTQSSIFSLLAIAIDRYIAIRIPLRYNGLVTGTRAKGIIAICWVLSFAIGLTPMLGWNNCGQPKEGKNHSQGCGEGQVACLFEDVVPMNYMVYFNFFACVLVPLLLMLGVYLRIFLALRRQLKQMESQPLPGERARSTLQKEVHAAKSLAIIVGLFALCWLPLHIINCFTFFCPDCSHAPLWLMYLAIVLSHTNSVVNPFIYAYRIREFRQTFRKIIRSHVLRQQEPFKAAGTSARVLAAHGSDGEQVSLRLNGHPPGVWANGSAPHPERRPNGYALGLVSGGSAQESQGNTGLPDVELLSHELKGVCPEPPGLDDPLAQDGAGVS | improved thermostability |  | 
G118A: A2aR point mutant (protein, UniProt P29274 1-412, looked up, variant G118A) Adenosine receptor A2a: MPIMGSSVYITVELAIAVLAILGNVLVCWAVWLNSNLQNVTNYFVVSLAAADIAVGVLAIPFAITISTGFCAACHGCLFIACFVLVLTQSSIFSLLAIAIDRYIAIRIPLRYNGLVTATRAKGIIAICWVLSFAIGLTPMLGWNNCGQPKEGKNHSQGCGEGQVACLFEDVVPMNYMVYFNFFACVLVPLLLMLGVYLRIFLAARRQLKQMESQPLPGERARSTLQKEVHAAKSLAIIVGLFALCWLPLHIINCFTFFCPDCSHAPLWLMYLAIVLSHTNSVVNPFIYAYRIREFRQTFRKIIRSHVLRQQEPFKAAGTSARVLAAHGSDGEQVSLRLNGHPPGVWANGSAPHPERRPNGYALGLVSGGSAQESQGNTGLPDVELLSHELKGVCPEPPGLDDPLAQDGAGVS | improved thermostability |  | improved thermostability
G152A: A2aR point mutant (protein, UniProt P29274 1-412, looked up, variant G152A) Adenosine receptor A2a: MPIMGSSVYITVELAIAVLAILGNVLVCWAVWLNSNLQNVTNYFVVSLAAADIAVGVLAIPFAITISTGFCAACHGCLFIACFVLVLTQSSIFSLLAIAIDRYIAIRIPLRYNGLVTGTRAKGIIAICWVLSFAIGLTPMLGWNNCGQPKEAKNHSQGCGEGQVACLFEDVVPMNYMVYFNFFACVLVPLLLMLGVYLRIFLAARRQLKQMESQPLPGERARSTLQKEVHAAKSLAIIVGLFALCWLPLHIINCFTFFCPDCSHAPLWLMYLAIVLSHTNSVVNPFIYAYRIREFRQTFRKIIRSHVLRQQEPFKAAGTSARVLAAHGSDGEQVSLRLNGHPPGVWANGSAPHPERRPNGYALGLVSGGSAQESQGNTGLPDVELLSHELKGVCPEPPGLDDPLAQDGAGVS | improved thermostability |  | 
P149A: A2aR point mutant (protein, UniProt P29274 1-412, looked up, variant P149A) Adenosine receptor A2a: MPIMGSSVYITVELAIAVLAILGNVLVCWAVWLNSNLQNVTNYFVVSLAAADIAVGVLAIPFAITISTGFCAACHGCLFIACFVLVLTQSSIFSLLAIAIDRYIAIRIPLRYNGLVTGTRAKGIIAICWVLSFAIGLTPMLGWNNCGQAKEGKNHSQGCGEGQVACLFEDVVPMNYMVYFNFFACVLVPLLLMLGVYLRIFLAARRQLKQMESQPLPGERARSTLQKEVHAAKSLAIIVGLFALCWLPLHIINCFTFFCPDCSHAPLWLMYLAIVLSHTNSVVNPFIYAYRIREFRQTFRKIIRSHVLRQQEPFKAAGTSARVLAAHGSDGEQVSLRLNGHPPGVWANGSAPHPERRPNGYALGLVSGGSAQESQGNTGLPDVELLSHELKGVCPEPPGLDDPLAQDGAGVS | improved thermostability |  | 
A231L: A2aR point mutant (protein, UniProt P29274 1-412, looked up, variant A231L) Adenosine receptor A2a: MPIMGSSVYITVELAIAVLAILGNVLVCWAVWLNSNLQNVTNYFVVSLAAADIAVGVLAIPFAITISTGFCAACHGCLFIACFVLVLTQSSIFSLLAIAIDRYIAIRIPLRYNGLVTGTRAKGIIAICWVLSFAIGLTPMLGWNNCGQPKEGKNHSQGCGEGQVACLFEDVVPMNYMVYFNFFACVLVPLLLMLGVYLRIFLAARRQLKQMESQPLPGERARSTLQKEVHLAKSLAIIVGLFALCWLPLHIINCFTFFCPDCSHAPLWLMYLAIVLSHTNSVVNPFIYAYRIREFRQTFRKIIRSHVLRQQEPFKAAGTSARVLAAHGSDGEQVSLRLNGHPPGVWANGSAPHPERRPNGYALGLVSGGSAQESQGNTGLPDVELLSHELKGVCPEPPGLDDPLAQDGAGVS | improved thermostability |  | 
V239A: A2aR point mutant (protein, UniProt P29274 1-412, looked up, variant V239A) Adenosine receptor A2a: MPIMGSSVYITVELAIAVLAILGNVLVCWAVWLNSNLQNVTNYFVVSLAAADIAVGVLAIPFAITISTGFCAACHGCLFIACFVLVLTQSSIFSLLAIAIDRYIAIRIPLRYNGLVTGTRAKGIIAICWVLSFAIGLTPMLGWNNCGQPKEGKNHSQGCGEGQVACLFEDVVPMNYMVYFNFFACVLVPLLLMLGVYLRIFLAARRQLKQMESQPLPGERARSTLQKEVHAAKSLAIIAGLFALCWLPLHIINCFTFFCPDCSHAPLWLMYLAIVLSHTNSVVNPFIYAYRIREFRQTFRKIIRSHVLRQQEPFKAAGTSARVLAAHGSDGEQVSLRLNGHPPGVWANGSAPHPERRPNGYALGLVSGGSAQESQGNTGLPDVELLSHELKGVCPEPPGLDDPLAQDGAGVS | improved thermostability |  | 
L235A: A2aR point mutant (protein, UniProt P29274 1-412, looked up, variant L235A) Adenosine receptor A2a: MPIMGSSVYITVELAIAVLAILGNVLVCWAVWLNSNLQNVTNYFVVSLAAADIAVGVLAIPFAITISTGFCAACHGCLFIACFVLVLTQSSIFSLLAIAIDRYIAIRIPLRYNGLVTGTRAKGIIAICWVLSFAIGLTPMLGWNNCGQPKEGKNHSQGCGEGQVACLFEDVVPMNYMVYFNFFACVLVPLLLMLGVYLRIFLAARRQLKQMESQPLPGERARSTLQKEVHAAKSAAIIVGLFALCWLPLHIINCFTFFCPDCSHAPLWLMYLAIVLSHTNSVVNPFIYAYRIREFRQTFRKIIRSHVLRQQEPFKAAGTSARVLAAHGSDGEQVSLRLNGHPPGVWANGSAPHPERRPNGYALGLVSGGSAQESQGNTGLPDVELLSHELKGVCPEPPGLDDPLAQDGAGVS | improved thermostability |  | 
